{"source": "paper PMC4797267", "about": "“The CSB chromatin remodeler and CTCF architectural protein cooperate in response to oxidative stress”", "binders": {"B1": {"name": "200 bp DNA fragment with CTCF-binding site (Fig. S4B) (dsDNA)", "DNA 1": "CACACCGAGTTCATCCCTTATGTGATGGACCCTCCACGAGGGGGCCCTGGAGAATCCCGGTGCCGAGGCTGCAGAATTGGTCGTAGACAGCTCTAGCACCGCTTAAACGCACGTACGCGCTGTCCCCCGCGTTTTAACCGCCAAGGGGATTACTCCCTAGTCTCCAGGCACGTGTCAGATATATACATCCTGT", "DNA 2": "ACAGGATGTATATATCTGACACGTGCCTGGAGACTAGGGAGTAATCCCCTTGGCGGTTAAAACGCGGGGGACAGCGCGTACGTGCGTTTAAGCGGTGCTAGAGCTGTCTACGACCAATTCTGCAGCCTCGGCACCGGGATTCTCCAGGGCCCCCTCGTGGAGGGTCCATCACATAAGGGATGAACTCGGTGTG"}}, "molecular_target": "T1, MBP-CTCF (zinc fingers 1-11) (UniProt P49711 269-579)", "T1 sequence": "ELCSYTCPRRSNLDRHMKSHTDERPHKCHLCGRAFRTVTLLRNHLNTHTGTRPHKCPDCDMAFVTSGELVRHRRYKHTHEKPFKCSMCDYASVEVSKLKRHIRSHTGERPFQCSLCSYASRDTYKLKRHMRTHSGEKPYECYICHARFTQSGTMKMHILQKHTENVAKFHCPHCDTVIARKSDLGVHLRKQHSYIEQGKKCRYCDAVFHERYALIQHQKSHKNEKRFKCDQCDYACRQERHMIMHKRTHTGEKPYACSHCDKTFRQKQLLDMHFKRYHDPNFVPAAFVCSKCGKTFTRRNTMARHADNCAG", "assay": "EMSA; 100 uM ZnSO4, 6 mM Mg2+; no CSB; 30 mM HEPES pH 7.9, 60 mM NaCl, 6% glycerol, 6 mM MgCl2, 100 uM ZnSO4, 0.02% NP40, 30 C 10 min; 1 nM DNA; 5% native PAGE, 0.5x TBE", "conditions": "protein: recombinant; tags: MBP; label: 32P (body label, PCR with 32P-dATP); blunt", "data": [{"binder": "B1", "values": [{"measurement": "binding result", "value": "binds"}]}]}
